# Experiment: soluble on expression in E. coli; label from the status in PepcDB or PDB records
row,Sequence,soluble on expression in E. coli
1,MGSDKIHHHHHHMSLTRLNIEAFRNIQSAQLIPAPGINLIYGQNGSGKTSILEAIYFLGMGRSFRSHLSQRVINNDDDKLTLFATLNLARGDSKIGLRRFRSGETEVRIDGEKVKRLSTLAETLPIQVITPESFSLLFEGPKSRRQFIDWGAFHADPQFYGAWTNVRRVLKQRNQLLRNGSAYSNIQFWDQEFVRYAEQVTEIRNHYVDSLNELLKGIIGEFLPSVDVKVSFTRGWDSKTDFAELLENQYSRDLATGHTVSGPHKADLRLRVGTLPAQDALSRGQLKLLVCALRIAQGKLLKQQIDKHSIYLVDDLPSELDAQHRQLLLKQLTDTGAQVFVTAIDPAAIVDSLHTPPSRMFHVEQGRVTVIE,not soluble
2,MGSDKIHHHHHHWLDLAPSTQVDTETSINVLSDIEFTLNGIYSTMQSSDAYSGRLVYYGDVTGDDMQAVSSTKRTGNYYRFNFTKDNGPSSHWSYLYSIIQNCNLILMNVDKLSIDEDETEYKNDLKGQALAIRGMALFDLTRIFGYPYLKDNGASLGVPIVKELSTIDSKPARNTVAECYTEIISDLKNSTELLSGDFNKGKVNRWAAMTLLSRVYLYKGEYNEALTMAENAIKGAEKEGYALWTNEEYPTAWGNDASASNPGEILFEIVNLTTDSPGKESMGYLNSYNGYDDMCITCSFYQLLKKDPKDVRLKILSFDKKYYAYVNKYQPQQGENITDANIPLIRLSEAYLNAAEAAVQTGDNAKAVKYLNSIVQRANPENSVEGKTLTLENVLDERRKELVAEGHRMYDVIRNGMTVKRIDVKDSDINKTKHNTAYMEYDWNFHKILLPIPKKEMDANPNMKQNPGYVD,not soluble
3,MNKYEEVLQELIKASGIEGAAIVSLDGLPIASVLPANAEEDKVAAMSAAILSLGERVVEELGKGTMEQITIKGDKGYVVITEIGQDAVLTTLAGQDSKLGLIYMEIKKAQQKLKELI,not soluble
4,MSLAYMPMTTVQHIATTNEKQAQKIIAELNAGASFDSQVRKYQNNRQAHTTAGKLAQFDSYNQTLAPAIVQATAKLRVGHYVTKPVKTVMATADTKDKPTYEIINVVSREGHHHHHH,soluble
5,MPLGLLWLGLALLGALHAQAQDSTSDLIPAPPLSKVPLQQNFQDNQFQGKWYVVGLAGNAILREDKDPQKMYATIYELKEDKSYNVTSVLFRKKKCDYAIATFVPGSQPGEFTLGNIKSYPGLTSYLVRVVSTNYNQHAMVFFKKVSQNREYFKITLYGRTKELTSELKENFIRFSKSLGLPENHIVFPVPIDQCIDG,soluble
6,MQDAACARRFVEAFGKRAYRRPLTPEEADAYAALFGQGSFREGVEATITHMLVSPNFLYRSELEHHHHHH,not soluble
7,QDLARIEQFLDALWLEKNLAENTLNAYRRDLSMMVEWLHHRGLTLATAQSDDLQALLAERLEGGYKATSSARLLSAVRRLFQYLYREKFREDDPSAHLASPKLPQRLPKDLSEAQVERLLQAPLIDQPLELRDKAMLEVLYATGLRVSELVGLTMSDISLRQGVVRVIGKGNKERLVPLGEEAVYWLETYLEHGRPWLLNGVSIDVLFPSQRAQQMTRQTFWHRIKHYAVLAGIDSEKLSPHVLRHAFATHLLNHGADLRVVQMLLGHSDLSTTQIYTHVATERLRQLHQ,soluble
8,MFLTRSEYDRGVSTFSPEGRLFQVEYSLEAIKLGSTAIGIATKEGVVLGVEKRATSPLLESDSIEKIVEIDRHIGCAMSGLTADARSMIEHARTAAVTHNLYYDEDINVESLTQSVCDLALRFGEGASGEERLMSRPFGVALLIAGHDADDGYQLFHAEPSGTFYRYNAKAIGSGSEGAQAELLNEWHSSLTLKEAELLVLKILKQVMEEKLDENNAQLSCITKQDGFKIYDNEKTAELIKELKEKEAAESPEEADVEMS,soluble
9,MKTQRIIHPNIDIRKFPEVNTDFSMTDISMGDLHANALLFLNILVRQGIIAISPENYAKFAEIYTLPELQADYWGTEAPVFSAENKQERLEEIKKQYNALIAQIKIINTKKLIRLIGDELVDRGVIDYFILKLLQALYDQGADFEILLSNHGIEFVEACELFKENGNKLVAKRLGNIQHGNSFHALQEAIAAGAISNEEVLNIYHQVYKKHLKIISYSLDPDANEIKVFSHAGIGLNHIRGLARKFKVPYSEESAVDLAKTIDAINKKFAEKASSGEIHTLYTHDMMYRGYAGEHLNSTDEVVAATVWGREYGDLIRTSKKFKITFIHGHDSYDPEKVEHVTLNNQLGQFQNNVGDLYLYATNGMRAVPTQYLNPDKKIQGSREKDRPDKPNDYVVKIHHTKPSFFKTSNPKITFPDSYKRIWDSADGDSNITKIKALLKDYTKEDSILGSFWGLIFTLHWGRHHVKSVHQIAQTKYTSVEAILSDLKALKPREGGSLDKRIKFIELQIIAQRCDSPEPQFNLK,not soluble
10,MSLRLALFDLDNTLLGGDSDHAWGDYLCERGFLDAVAYKTRNDEFYQDYLAGKLDNAAYLNFCLEILGRTDMVVLEEWHRDFMRDCIEPILLPKAQALLDKHRAAGDKLVIITATNRFVTAPIAERLGVETLIATECEMQDGRYTGRSTDVPCFREGKVTRLNRWLEETGHSLEDSYFYSDSMNDLPLLEQVTTAVAVDPDPNLRAEAEKRGWQVISLRDEGHHHHHH,soluble
11,MRIGLFTDTYFPQVSGVATSIRTLKTQLEKMGHNVFIFTTTDRDVDRYEDWQIIRIPSVPFFAFKDRRVAYRGFSKALEIAKQYKLDIIHTQTEFSLGLLGIAIAHELKIPVVHTYHTQYEDYVRYIAKGMVIRPSMVKYIVRGFMSDLDGVICPSEIVYDLLLKYKVAAEKRVIPTGIELEKFQRPEITEEDVSDLRAKLGISSDETMLLSLSRVSYEKNIQAVMAALPSVLEEEDKVRLVVAGDGPYLPHLKSQAKKLGIEDKVVFTGMIAPGETALYYKAADFFISASTSETQGLTYLEALASGTPIIAHGNTYLDNIITDKMFGILYYHDNDLAGAILEAAIVTPEKDETKWAEKLYEISAENFGKRVYEYYLDLTISKDFHNDLNGEDSTMKRLTRMVTHLPTKAITLPVNGSVRIIKGSAKQVKKIRNIKKFLDLEHHHHHH,soluble
12,MKTVICGVQNMTTIRRLSAEDLLHFNSVNLDQLTETFNLGFYFNYLARWPDYQYVVTDSQSTTVAYIIGKAEGAGDLFHGHVSAVTVAPWFRRMGLASLLMEILENVSEKVYQGYFVDLFVRVSNHRAIEMYKKLGYIVYRRIIGYYSGEEDAFDMRKSLSKDPERKAMIPLDRPVYPSEVLLTD,soluble
13,MLKFRTVHGGLRLLGIRRTSTAPAASPNVRRLEYKPIKKVMVANRGEIAIRVFRACTELGIRTVAIYSEQDTGQMHRQKADEAYLIGRGLAPVQAYLHIPDIIKVAKENNVDAVHPGYGFLSERADFAQACQDAGVRFIGPSPEVVRKMGDKVEARAIAIAAGVPVVPGTDAPITSLHEAHEFSNTYGFPIIFKAAYGGGGRGMRVVHSYEELEENYTRAYSEALAAFGNGALFVEKFIEKPRHIEVQILGDQYGNILHLYERDCSIQRRHQKVVEIAPAAHLDPQLRTRLTSDSVKLAKQVGYENAGTVEFLVDRHGKHYFIEVNSRLQVEHTVTEEITDVDLVHAQIHVSEGRSLPDLGLRQENIRINGCAIQCRVTTEDPARSFQPDTGRIEVFRSGEGMGIRLDNASAFQGAVISPHYDSLLVKVIAHGKDHPTAATKMSRALAEFRVRGVKTNIAFLQNVLNNQQFLAGTVDTQFIDENPELFQLRPAQNRAQKLLHYLGHVMVNGPTTPIPVKASPSPTDPVVPAVPIGPPPAGFRDILLREGPEGFARAVRNHPGLLLMDTTFRDAHQSLLATRVRTHDLKKIAPYVAHNFSKLFSMENWGGATFDVAMRFLYECPWRRLQELRELIPNIPFQMLLRGANAVGYTNYPDNVVFKFCEVAKENGMDVFRVFDSLNYLPNMLLGMEAAGSAGGVVEAAISYTGDVADPSRTKYSLQYYMGLAEELVRAGTHILCIKDMAGLLKPTACTMLVSSLRDRFPDLPLHIHTHDTSGAGVAAMLACAQAGADVVDVAADSMSGMTSQPSMGALVACTRGTPLDTEVPMERVFDYSEYWEGARGLYAAFDCTATMKSGNSDVYENEIPGGQYTNLHFQAHSMGLGSKFKEVKKAYVEANQMLGDLIKVTPSSKIVGDLAQFMVQNGLSRAEAEAQAEELSFPRSVVEFLQGYIGVPHGGFPEPFRSKVLKDLPRVEGRPGASLPPLDLQALEKELVDRHGEEVTPEDVLSAAMYPDVFAHFKDFTATFGPLDSLNTRLFLQGPKIAEEFEVELERGKTLHIKALAVSDLNRAGQRQVFFELNGQLRSILVKDTQAMKEMHFHPKALKDVKGQIGAPMPGKVIDIKVVAGAKVAKGQPLCVLSAMKMETVVTSPMEGTVRKVHVTKDMTLEGDDLILEIE,not soluble
14,LPSPSRQASTRRMSIGESIDGKINDWEEPRLDIEGFVVDYFTHRIRQNGMEWFGAPGLPSGVQPEHEMMRVMGTIFEKKHAENFETFSEQLLAVPRISFSLYQDVVRTVGNAQTDQSPMSYGRLIGLISFGGFVAAKMMESVELQGQVRNLFVYTSLFIKTRIRNNWKEHNRSWDDFMTLGKQMKEDYERAEAEKVGRRKQNRR,soluble
15,MGSDKIHHHHHHMNLLDHLRRMAGNNLWSNDRLYRAVLALKPGEFEAERTSFFPSIKATLNHVLAVDYLYLDFLEEGGVGAAAHDDFVPFDEPQPLFAAQMAADRRLIAFCDGLSEADLDRRVITDRRADGMIPERIGDILAHVFLHDIHHRGQVHAMLSGTSVVPPQLDEFLLDYDAKLRKAEVERLGL,not soluble
16,MSLYGGIPTNLVSGMSSAGAICTTQIRDAREREKREIGLLNDRLADYIEKVRFLKAQNHVLSHDIEILRRGFSGGGHISSFFESEISNCTVISERILSSRTKFQADITGLEGEIEIYRKKWLEALKVVRSHREDHHVNLDKLAEVEAQIALFNRKIRIVEEDVLRIRRETGGIQNDIGRIHSQIHAEIALKNERHHSVQMLLQRVQVIQTENSSRIEQELIYIHRDTTLENRDYFRQELQAAMRDIRANYEAMSIRSREDIEIAYRKRIDEIRVIPAHVHIEDYREELLSIRTTLSTTHSRLAEIESRNAWLLTTITDLKHQQAEEARIFEATLDAKQATYEQFKERCTELSIQMEKLCDHETSLQAELERYRVLLNGANVTTYVSNSTGAAGYRSSTHVATTTTTTTNGYSSGYTAGGYTSGGYTTGGYTRGITAGGAVGGISTGGYIGRSSSSHGISVGGNIGGVSVGGHINGYHASGDISAAGRHHESSYSYSSSNN,not soluble
17,MGSDKIHHHHHHMRQPDHDDERAQCFAGFAPESIAHYLEHVWLGTPNPVEEPALADDRTASLAVIPVSELAGRRTELLDAMVTLYGGERETHARALLSQWTKYYFGFTATAGFVAAALLRRPLAMSPDNTHIVLRDGLPIAAYFARDALQPVECDPARRYAPLVEHLNAVIEMLCTMTRIAPRVLWSNAGNLLDYLFEQCAPQFDLSEDIAWLFGPLAANGEANPLRLPVRQAKPRAASLPNPFSARRVCCVRYEIPGETQLCGRCPLLLTMSDAEIALQAASQ,not soluble
18,MSLADPGREGHLEQRILQVLTEAGSPVKLAQLVKECQAPKRELNQVLYRMKKELKVSLTSPATWCLGGTDPEGEGPAELALSSPAERPQQHAATIPETPGPQFSQQREEDIYRFLKDNGPQRALVIAQALGMRTAKDVNRDLYRMKSRHLLDMDEQSKAWTIYRPEDSGREGHHHHHH,soluble
19,MGSDKIHHHHHHMSYNFEEERVIKEIREKNAKRVLLQFPEGLKYFSIDIVKKLREKLPNVNFIISGEPSWGACDIAEDEAQQVNADLIIHFGHTPYTWYYPKFPTIFINAESNLDISENALHSLENDISKYNGRKISLTATLQHVRLLSKIKSFLEDKGYDIVIGKPSNRFMFDGQVLGCDYKAAEVEADIYVIVSGGLFHALGLGLATNKPTIKLDPYLQKSEDITNDVRKILKVRYGKILQALDKRSWVIIQGVKVGQNRPNMIKYFYDKLTEKGYDVFTVTNKVLTLDILRNLDRNYIDVFLVTSCPRLPIDDLYNYEKPVLTPGEAKMIINNSLEPYIFPW,not soluble

# Source: the DeepSol protein solubility set
